From patent publication US6689868 (Dana-Farber, dated 2004)

Assays:
[1] = target: SHPTP1 (endogenous, activated human T cells) (human, UniProt P29350 1-595, limits assumed); assay: co-immunoprecipitation with 8C93D8 from activated human T cell lysates, Western blot
Description: (§1) To identify the protein tyrosine phosphatase associated with CD2BP1, activated human T cells were disrupted in lysis buffer at 30 ×10^6/ml and the supernatant collected as described above. After preclearing with control beads (CNBr activated beads linked to nonspecific mouse IgG at 5 mg/ml, Sigma) overnight, the supernatant was diluted to 10 ×10^6 cells/ml in lysis buffer containing 0.1% bovine serum albumin (BSA). CD2BP1 and any associated molecules were immunoprecipitated by incubation at 4° C. for 3 h with CNBr beads coupled to either anti-CD2BP1 mAb 8C93D8 or, as a control, nonspecific mouse IgG. After two washes in lysis buffer and one wash in TBS, the immunocomplexes on the beads were eluted by heating at 65° C. for 20 min in SDS sample buffer and subjected to 12.5% reducing SDS-PAGE. After electrophoresis, proteins on the gel were transferred to nitrocellulose for Western blotting. The membranes were then probed with different primary antibodies: rabbit anti-human PTP-PEST (CSH8) 1:1000 (Garton and Tonks, 1994), rabbit anti-human FLP (aEN12) 1:1000 (Dosil et al., 1996), goat anti-human SHPTP1 (Santa Cruz) 1:100, rabbit antihuman SHPTP2 (Santa Cruz) 1:100, followed by washing and incubation with the secondary HRPO-conjugated goat anti-rabbit antibody (1:5000) or donkey anti-goat antibody (Santa Cruz) 1:2000, and signals developed by ECL. […]

[2] = target: T1, SHPTP2 (endogenous, activated human T cells) (human, UniProt Q06124 2-593); assay: as above
T1 sequence (looked up): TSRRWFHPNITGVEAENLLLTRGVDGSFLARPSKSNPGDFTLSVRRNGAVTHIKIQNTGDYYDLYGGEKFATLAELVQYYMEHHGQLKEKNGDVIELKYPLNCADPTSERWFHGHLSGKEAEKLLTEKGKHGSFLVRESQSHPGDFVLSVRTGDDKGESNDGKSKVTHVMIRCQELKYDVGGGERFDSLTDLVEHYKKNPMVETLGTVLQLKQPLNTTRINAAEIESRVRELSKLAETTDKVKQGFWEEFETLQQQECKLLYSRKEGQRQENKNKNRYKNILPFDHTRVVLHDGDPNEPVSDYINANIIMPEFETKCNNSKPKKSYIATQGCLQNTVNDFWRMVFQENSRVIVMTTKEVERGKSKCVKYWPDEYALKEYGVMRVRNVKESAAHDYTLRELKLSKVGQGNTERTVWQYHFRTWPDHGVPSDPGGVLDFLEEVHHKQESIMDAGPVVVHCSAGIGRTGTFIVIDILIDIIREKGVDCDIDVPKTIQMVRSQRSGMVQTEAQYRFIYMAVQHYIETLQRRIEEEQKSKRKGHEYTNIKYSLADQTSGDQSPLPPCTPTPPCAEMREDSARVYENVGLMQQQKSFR
Description: as §1

Chain of SHPTP1 (endogenous, activated human T cells) (P29350 whole entry): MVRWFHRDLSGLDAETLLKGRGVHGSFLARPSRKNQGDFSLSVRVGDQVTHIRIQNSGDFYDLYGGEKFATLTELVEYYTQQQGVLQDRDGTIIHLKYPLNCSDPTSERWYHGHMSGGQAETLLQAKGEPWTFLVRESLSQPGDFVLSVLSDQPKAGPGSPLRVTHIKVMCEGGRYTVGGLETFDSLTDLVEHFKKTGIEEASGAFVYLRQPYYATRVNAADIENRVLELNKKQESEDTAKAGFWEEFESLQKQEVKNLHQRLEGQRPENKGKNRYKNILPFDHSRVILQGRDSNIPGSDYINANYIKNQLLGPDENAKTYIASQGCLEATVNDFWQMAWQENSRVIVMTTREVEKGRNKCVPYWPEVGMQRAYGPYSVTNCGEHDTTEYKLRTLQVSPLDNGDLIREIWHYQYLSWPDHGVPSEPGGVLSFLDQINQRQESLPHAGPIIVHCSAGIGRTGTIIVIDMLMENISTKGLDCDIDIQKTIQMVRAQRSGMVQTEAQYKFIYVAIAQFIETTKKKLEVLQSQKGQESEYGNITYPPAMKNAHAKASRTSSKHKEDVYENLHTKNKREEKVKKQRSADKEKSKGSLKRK

B1: CD2BP1 protein (endogenous, activated human T cells) (other)
chain: MMPQLQFKDAFWCRDFTAHTGYEVLLQRLLDGRKMCKDMEELLRQRAQAEERYGKELVQIARKAGGQTEINSLRASFDSLKQQMENVGSSHIQLALTLREELRSLEEFRERQKEQRKKYEAVMDRVQKSKLSLYKKAMESKKTYEQKCRDADDAEQAFERISANGHQKQVEKSQNKARQCKDSATEAERVYRQSIAQLEKVRAEWEQEHRTTCEAFQLQEFDRLTILRNALWVHSNQLSMQCVKDDELYEEVRLTLEGCSIDADIDSFIQAKSTGTEPPAPVPYQNYYDREVTPLTSSPGIQPSCGMIKRFSGLLHGSPKTTSLAASAASTETLTPTPERNEGVYTAIAVQEIQGNPASPAQEYRALYDYTAQNPDELDLSAGDILEVILEGEDGWWTVERNGQRGFVPGSYLEKL
notes: Endogenous protein
B1: no binding [1]; no binding [2].
